From patent US20070224188A1

Each substance was assayed against biotin-labeled soluble FcRn (assay: FcRn ELISA pH 6.0).

| Substance | FcRn pH6.0 (% of wild type) | FcRn6.0 (% of wild type) |
| --- | --- | --- |
| anti-CD20 IgG1 D376F (antibody) | 116 |  |
| anti-CD20 IgG1 T256Y (antibody) | 68 |  |
| anti-CD20 IgG1 V279R (antibody) | 130 |  |
| anti-CD20 IgG1 E283H (antibody) | 206 |  |
| anti-CD20 IgG1 257I430Q (antibody) |  | 304 |
| anti-CD20 IgG1 G341N (antibody) | 53 |  |
| anti-CD20 IgG1 E272K (antibody) | 320 |  |
| anti-CD20 IgG1 V279S (antibody) | 242 |  |
| anti-CD20 IgG1 V379S (antibody) | 86 |  |
| anti-CD20 IgG1 Y373K (antibody) | 70 |  |
| anti-CD20 IgG1 L314F (antibody) | 42 |  |
| anti-CD20 IgG1 K317P (antibody) | 145 |  |
| anti-CD20 IgG1 N434W (antibody) | 1340 |  |
| anti-CD20 IgG1 R301W (antibody) | 119 |  |
| anti-CD20 IgG1 330R332D (antibody) |  | 88 |
| anti-CD20 IgG1 E283I (antibody) | 143 |  |
| anti-CD20 IgG1 P343N (antibody) | 105 |  |
| anti-CD20 IgG1 G341M (antibody) | 79 |  |
| anti-CD20 IgG1 E272R (antibody) | 351 |  |
| anti-CD20 IgG1 T256F (antibody) | 5 |  |
| anti-CD20 IgG1 G237K (antibody) | 78 |  |
| anti-CD20 IgG1 E283K (antibody) | 246 |  |
| anti-CD20 IgG1 E430M (antibody) | 195 |  |
| anti-CD20 IgG1 E430D (antibody) | 44 |  |
| anti-CD20 IgG1 258D283R (antibody) |  | 411 |
| anti-CD20 IgG1 251F332E376I (antibody) |  | 68 |

| Substance | FcRn pH6.0 (% of wild type) | FcRn6.0 (% of wild type) |
| --- | --- | --- |
| anti-CD20 IgG1 D376M (antibody) | 129 |  |
| anti-CD20 IgG1 T260S (antibody) | 124 |  |
| anti-CD20 IgG1 Q438T (antibody) | 126 |  |
| anti-CD20 IgG1 S254E (antibody) | 6 |  |
| anti-CD20 IgG1 286F307E (antibody) |  | 431 |
| anti-CD20 IgG1 I332N (antibody) | 92 |  |
| anti-CD20 IgG1 I377P (antibody) | 98 |  |
| anti-CD20 IgG1 S254D (antibody) | 7 |  |
| anti-CD20 IgG1 L314Y (antibody) | 64 |  |
| anti-CD20 IgG1 G237N (antibody) | 91 |  |
| anti-CD20 IgG1 E283Y (antibody) | 142 |  |
| anti-CD20 IgG1 I332E (antibody) | 86 |  |
| anti-CD20 IgG1 L235S (antibody) | 85 |  |
| anti-CD20 IgG1 S440R (antibody) | 88 |  |
| anti-CD20 IgG1 Y373D (antibody) | 74 |  |
| anti-CD20 IgG1 V264S (antibody) | 78 |  |
| anti-CD20 IgG1 I332A (antibody) | 96 |  |
| anti-CD20 IgG1 N434F (antibody) | 1010 |  |
| anti-CD20 IgG1 283R311I (antibody) |  | 531 |
| anti-CD20 IgG1 P247E (antibody) | 52 |  |
| anti-CD20 IgG1 V262L (antibody) | 525 |  |
| anti-CD20 IgG1 N434H (antibody) | 855 |  |
| anti-CD20 IgG1 G385E (antibody) | 98 |  |
| anti-CD20 IgG1 256P311I (antibody) |  | 268 |
| anti-CD20 IgG1 G341Q (antibody) | 72 |  |
| anti-CD20 IgG1 Q311I (antibody) | 437 |  |

| Substance | FcRn pH6.0 (% of wild type) | FcRn6.0 (% of wild type) |
| --- | --- | --- |
| anti-CD20 IgG1 S440K (antibody) | 132 |  |
| anti-CD20 IgG1 Q311A (antibody) | 139 |  |
| anti-CD20 IgG1 S424V (antibody) | 57 |  |
| anti-CD20 IgG1 A339S (antibody) | 95 |  |
| anti-CD20 IgG1 I332Y (antibody) | 93 |  |
| anti-CD20 IgG1 Y373Q (antibody) | 55 |  |
| anti-CD20 IgG1 E382P (antibody) | 122 |  |
| anti-CD20 IgG1 D376Y (antibody) | 53 |  |
| anti-CD20 IgG1 S424M (antibody) | 60 |  |
| anti-CD20 IgG1 S254T (antibody) | 32 |  |
| anti-CD20 IgG1 E272H (antibody) | 157 |  |
| anti-CD20 IgG1 268D332E (antibody) |  | 92 |
| anti-CD20 IgG1 R255K (antibody) | 41 |  |
| anti-CD20 IgG1 T307A (antibody) | 233 |  |
| anti-CD20 IgG1 G236F (antibody) | 88 |  |
| anti-CD20 IgG1 K317T (antibody) | 49 |  |
| anti-CD20 IgG1 G341E (antibody) | 50 |  |
| anti-CD20 IgG1 G341K (antibody) | 67 |  |
| anti-CD20 IgG1 D376H (antibody) | 81 |  |
| anti-CD20 IgG1 T256D (antibody) | 544 |  |
| anti-CD20 IgG1 V279W (antibody) | 162 |  |
| anti-CD20 IgG1 E382N (antibody) | 137 |  |
| anti-CD20 IgG1 E382D (antibody) | 73 |  |
| anti-CD20 IgG1 D265Y (antibody) | 33 |  |
| anti-CD20 IgG1 S426L (antibody) | 117 |  |
| anti-CD20 IgG1 D265S (antibody) | 66 |  |

| Substance | FcRn pH6.0 (% of wild type) | FcRn6.0 (% of wild type) |
| --- | --- | --- |
| anti-CD20 IgG1 V427N (antibody) | 192 |  |
| anti-CD20 IgG1 256P434H (antibody) |  | 342 |
| anti-CD20 IgG1 272R376V (antibody) |  | 369 |
| anti-CD20 IgG1 P343W (antibody) | 56 |  |
| anti-CD20 IgG1 R292F (antibody) | 64 |  |
| anti-CD20 IgG1 D376T (antibody) | 160 |  |
| anti-CD20 IgG1 E430H (antibody) | 192 |  |
| anti-CD20 IgG1 P343L (antibody) | 125 |  |
| anti-CD20 IgG1 Q311V (antibody) | 558 |  |
| anti-CD20 IgG1 E382S (antibody) | 151 |  |
| anti-CD20 IgG1 S440M (antibody) | 80 |  |
| anti-CD20 IgG1 G341R (antibody) | 78 |  |
| anti-CD20 IgG1 376V430Q (antibody) |  | 212 |
| anti-CD20 IgG1 Q311W (antibody) | 215 |  |
| anti-CD20 IgG1 283R376V (antibody) |  | 475 |
| anti-CD20 IgG1 Y373A (antibody) | 33 |  |
| anti-CD20 IgG1 E272L (antibody) | 129 |  |
| anti-CD20 IgG1 A339R (antibody) | 82 |  |
| anti-CD20 IgG1 311I376V (antibody) |  | 414 |
| anti-CD20 IgG1 E283G (antibody) | 137 |  |
| anti-CD20 IgG1 K439H (antibody) | 99 |  |
| anti-CD20 IgG1 G237R (antibody) | 56 |  |
| anti-CD20 IgG1 247L251F376I (antibody) |  | 61 |
| anti-CD20 IgG1 P343S (antibody) | 101 |  |
| anti-CD20 IgG1 A339N (antibody) | 146 |  |
| anti-CD20 IgG1 E382I (antibody) | 131 |  |

| Substance | FcRn pH6.0 (% of wild type) | FcRn6.0 (% of wild type) |
| --- | --- | --- |
| anti-CD20 IgG1 D270K (antibody) | 122 |  |
| anti-CD20 IgG1 E318V (antibody) | 114 |  |
| anti-CD20 IgG1 K248A (antibody) | 15 |  |
| anti-CD20 IgG1 Q311S (antibody) | 97 |  |
| anti-CD20 IgG1 256P314Y332E440Y (antibody) |  | 86 |
| anti-CD20 IgG1 Y373L (antibody) | 66 |  |
| anti-CD20 IgG1 Y373T (antibody) | 82 |  |
| anti-CD20 IgG1 D249Y (antibody) | 41 |  |
| anti-CD20 IgG1 A339K (antibody) | 83 |  |
| anti-CD20 IgG1 332E376I (antibody) |  | 102 |
| anti-CD20 IgG1 T256L (antibody) | 78 |  |
| anti-CD20 IgG1 314Y332E440Y (antibody) |  | 82 |
| anti-CD20 IgG1 E283R (antibody) | 282 |  |
| anti-CD20 IgG1 P247F (antibody) | 6 |  |
| anti-CD20 IgG1 G341H (antibody) | 65 |  |
| anti-CD20 IgG1 T256P (antibody) | 190 |  |
| anti-CD20 IgG1 G341D (antibody) | 52 |  |
| anti-CD20 IgG1 251F332E (antibody) |  | 72 |
| anti-CD20 IgG1 G237E (antibody) | 93 |  |
| anti-CD20 IgG1 S267I (antibody) | 83 |  |
| anti-CD20 IgG1 330K332E (antibody) |  | 94 |
| anti-CD20 IgG1 D270M (antibody) | 81 |  |
